In assay [1] the target is human NPR1 on HEK293/hNPR1.myc.DDK cells (0 hANP) (human) (UniProt P16066). In words: cell-based or functional assay.
Assay [2] deals with hNPR1-mFc:hANP or hNPR1-hFc:hANP complex (human) (UniProt P01160). In words: SPR, mAb captured, 25C. A general note: Surface plasmon resonance follows binding to a sensor surface in real time, without labels.
Assay [3] addresses hNPR1-mFc:hBNP complex (human) (UniProt P16860). The assay can be described thus: SPR, mAb captured, 25C.
Assay [4] has as its target mfNPR1-mFc (monkey). In words: SPR, mAb captured, 25C.
In assay [5] the target is mfNPR1-mFc:hANP complex (monkey; human) (UniProt P01160). In words: SPR, mAb captured, 25C.
Assay [6] deals with mfNPR1-mFc:hBNP complex (monkey; human) (UniProt P16860). In words: SPR, mAb captured, 25C.
Assay [7] deals with hNPR1-mFc:hANP or hNPR1-hFc:hANP complex (human) (UniProt P01160). The assay can be described thus: SPR, mAb captured, 37C.
In assay [8] the target is hNPR1-mFc:hBNP complex (human) (UniProt P16860). In words: SPR, mAb captured, 37C.
The target in assay [9] is mfNPR1-mFc (monkey). In words: SPR, mAb captured, 37C.
The target in assay [10] is mfNPR1-mFc:hANP complex (monkey; human) (UniProt P01160). The assay can be described thus: SPR, mAb captured, 37C.
Assay [11] has as its target human NPR1 on HEK293/hNPR1.myc.DDK cells (0 hANP) (human) (UniProt P16066). In words: ECL cell binding (MSD), 0 hANP.
Assay [12] deals with mNPR1-mFc (mouse). In words: SPR Biacore, mAb captured by anti-human Fc, 25C.
The target of assay [13] is mNPR1-mFc:hANP complex (mouse; human) (UniProt P01160). The assay can be described thus: SPR Biacore, mAb captured by anti-human Fc, 25C.
Assay [14] deals with mNPR1-mFc:hBNP complex (mouse; human) (UniProt P16860). The assay can be described thus: SPR Biacore, mAb captured by anti-human Fc, 25C.
In assay [15] the target is mNPR1-mFc (mouse). The assay can be described thus: SPR Biacore, mAb captured by anti-human Fc, 37C.
The target of assay [16] is mNPR1-mFc:hANP complex (mouse; human) (UniProt P01160). In words: SPR Biacore, mAb captured by anti-human Fc, 37C.
Assay [17] concerns the target mNPR1-mFc:hBNP complex (mouse; human) (UniProt P16860). In words: SPR Biacore, mAb captured by anti-human Fc, 37C.
Assay [18] addresses mfNPR1-mFc:hBNP complex (monkey; human) (UniProt P16860). The assay can be described thus: SPR Biacore, mAb captured by anti-human Fc, 37C.

This is an account of results in patent US20240309103A1.

human NPR1 on HEK293/hNPR1.myc.DDK cells (0 hANP) (human), sequence (P16066 33-1061): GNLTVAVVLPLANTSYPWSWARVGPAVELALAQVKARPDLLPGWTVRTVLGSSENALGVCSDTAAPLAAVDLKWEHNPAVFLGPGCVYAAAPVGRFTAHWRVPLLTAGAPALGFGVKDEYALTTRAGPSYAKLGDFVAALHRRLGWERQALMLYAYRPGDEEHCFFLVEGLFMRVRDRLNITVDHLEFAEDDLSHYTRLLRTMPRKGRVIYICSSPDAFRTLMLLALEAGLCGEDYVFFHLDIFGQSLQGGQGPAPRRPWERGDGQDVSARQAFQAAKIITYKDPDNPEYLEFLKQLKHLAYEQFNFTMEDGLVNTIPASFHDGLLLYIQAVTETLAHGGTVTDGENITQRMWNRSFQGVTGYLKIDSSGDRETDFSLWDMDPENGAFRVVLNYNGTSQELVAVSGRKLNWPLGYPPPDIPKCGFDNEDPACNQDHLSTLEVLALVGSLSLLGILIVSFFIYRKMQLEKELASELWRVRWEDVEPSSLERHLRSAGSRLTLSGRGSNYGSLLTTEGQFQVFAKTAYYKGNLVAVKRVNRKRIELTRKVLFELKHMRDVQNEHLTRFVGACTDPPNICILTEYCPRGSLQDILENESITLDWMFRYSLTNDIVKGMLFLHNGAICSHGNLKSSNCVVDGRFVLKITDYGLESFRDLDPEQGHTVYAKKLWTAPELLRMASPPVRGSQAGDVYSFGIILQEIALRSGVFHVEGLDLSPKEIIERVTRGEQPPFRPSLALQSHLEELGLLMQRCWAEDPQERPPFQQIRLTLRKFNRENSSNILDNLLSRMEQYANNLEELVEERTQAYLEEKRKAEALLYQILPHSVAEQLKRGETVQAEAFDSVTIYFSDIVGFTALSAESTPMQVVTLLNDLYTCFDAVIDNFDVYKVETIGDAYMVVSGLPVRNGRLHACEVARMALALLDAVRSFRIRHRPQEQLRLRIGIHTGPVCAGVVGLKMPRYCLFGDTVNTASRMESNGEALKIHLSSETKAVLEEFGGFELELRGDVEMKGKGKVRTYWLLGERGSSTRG
mNPR1-mFc (mouse), sequence (chain, as listed by the source limits assumed): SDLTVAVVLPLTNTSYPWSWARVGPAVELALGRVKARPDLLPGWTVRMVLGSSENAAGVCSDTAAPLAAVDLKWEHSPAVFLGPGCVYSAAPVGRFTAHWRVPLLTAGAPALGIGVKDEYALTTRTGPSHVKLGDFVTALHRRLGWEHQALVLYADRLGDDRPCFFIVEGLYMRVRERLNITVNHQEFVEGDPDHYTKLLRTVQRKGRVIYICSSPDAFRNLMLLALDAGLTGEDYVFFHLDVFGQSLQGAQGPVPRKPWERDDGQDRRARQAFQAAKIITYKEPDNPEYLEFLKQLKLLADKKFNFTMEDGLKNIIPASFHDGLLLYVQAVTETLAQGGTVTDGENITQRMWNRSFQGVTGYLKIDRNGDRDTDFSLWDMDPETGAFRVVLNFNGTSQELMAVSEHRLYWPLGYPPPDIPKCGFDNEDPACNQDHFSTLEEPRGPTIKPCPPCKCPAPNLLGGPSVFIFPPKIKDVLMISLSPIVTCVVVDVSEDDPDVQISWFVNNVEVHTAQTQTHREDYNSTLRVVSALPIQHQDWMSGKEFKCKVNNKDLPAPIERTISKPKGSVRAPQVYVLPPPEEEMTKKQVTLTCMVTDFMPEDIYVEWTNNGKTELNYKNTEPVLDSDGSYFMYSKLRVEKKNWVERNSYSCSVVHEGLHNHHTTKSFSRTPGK
mfNPR1-mFc (monkey), sequence (chain, as listed by the source limits assumed): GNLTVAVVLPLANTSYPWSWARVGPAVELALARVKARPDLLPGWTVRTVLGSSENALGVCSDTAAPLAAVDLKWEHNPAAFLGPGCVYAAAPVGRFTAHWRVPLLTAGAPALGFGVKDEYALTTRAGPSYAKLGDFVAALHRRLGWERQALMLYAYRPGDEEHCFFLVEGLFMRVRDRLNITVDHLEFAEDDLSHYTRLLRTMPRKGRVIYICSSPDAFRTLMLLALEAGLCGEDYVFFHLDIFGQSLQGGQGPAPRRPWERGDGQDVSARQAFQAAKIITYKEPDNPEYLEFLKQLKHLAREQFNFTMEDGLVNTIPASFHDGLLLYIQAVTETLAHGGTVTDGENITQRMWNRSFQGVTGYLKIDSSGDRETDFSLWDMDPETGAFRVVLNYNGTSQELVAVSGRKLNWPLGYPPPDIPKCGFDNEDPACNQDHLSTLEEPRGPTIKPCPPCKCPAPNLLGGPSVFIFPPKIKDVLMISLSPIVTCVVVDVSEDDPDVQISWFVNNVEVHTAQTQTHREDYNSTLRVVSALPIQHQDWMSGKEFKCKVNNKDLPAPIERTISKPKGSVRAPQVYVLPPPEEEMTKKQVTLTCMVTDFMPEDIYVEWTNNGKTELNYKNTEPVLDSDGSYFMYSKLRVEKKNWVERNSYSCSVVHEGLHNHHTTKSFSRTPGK

Consider “ANP (from UniProt P01160 124-151) (ligand)”, for which the EC50 (pM), ligand ANP, calcium flux activation, Expt II in [1] came out at 78.8 pM.
IgG4 Isotype Control (antibody): the 100 nM Ag Bound (RU) in assay [2] is -12 RU; in assay [3] it was -11 RU; in the assay with mfNPR1-mFc (monkey) [4], 5 RU; in assay [5] it was 7 RU; in [6], 7 RU; in [7], -18 RU. Also, the 100 nM Ag Bound (RU) in [8] was -17 RU; with mfNPR1-mFc (monkey) [9] it was 8 RU; in assay [10], 9 RU; in the assay with mNPR1-mFc (mouse) [12] it was 0 RU; in assay [13] it was 1 RU; in assay [14] it was 2 RU. Also, the 100 nM Ag Bound (RU) turned out to be 2 RU with mNPR1-mFc (mouse) [15], 2 RU in assay [16], 3 RU in assay [17] and 9 RU in [18]. Moreover, the % Activation (vs ANP max), Expt 1 in assay [1] was -6.03%. In assay [1], this substance registered a % Activation (vs. ANP max), Expt II of 1.9%. In addition, in assay [11], the Ratio at 3.7 nM Ab concentration of Cell Binding Signal (RLU) to HEK293/hNPR1.myc.DKK relative to parental HEK293 is 1.
